In the supplement of paper PMC12042874:
± gives the uncertainty stated by the source.

Test: amyloid nucleation score (Sup35N fusion, yeast selection) (log enrichment); library NNK1; higher = more nucleation; inactive = no reads after selection
Summary of the method: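 DiMSum was used to calculate nucleation scores as log enrichment of output over input reads, centred on the mode score of non-aggregating sequences. Sequences with fewer than 100 input reads were not scored. Input and output came from Illumina sequencing of plasmid inserts in psi-negative yeast expressing peptides of 20 random codons fused to Sup35N, induced 24 hours with 100 μM copper sulfate and then grown 7 days at 30°C on medium lacking adenine and uracil.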

Substance | amyloid nucleation score
LWNIMVLDIWDRDLCSCIWG | 0.756 ± 0.56
RARTKAWWMDWSGYRRGGHL | 0.118 ± 0.58
FAWEVKTDYRWYNPWLGRAC | -0.838 ± 2.1
NLKRPNELWINIETFIRSLH | 1.32 ± 0.38
FVSYTSP | -0.079 ± 0.33
DCFYLSIGRIFFHP | 2.92 ± 0.21
YVCKIYFHDFDRNMGILEDH | 1.13 ± 0.85
WRESSWLCMWERNVKVDWGR | -0.87 ± 1.7
RLFGLPKYCYVILFPVDVCH | 0.132 ± 0.21
GVRVCSMPFAALLAFLLYFS | -1.09 ± 0.76
MVDTYRYVIISVYVMLPYYN | 1.14 ± 0.97
FAIFKSTIPINSVVWPIIMH | 0.87 ± 0.3
YRVVLAECTSGYWEDIYSHI | 1.75 ± 0.16
CSNLQLAHKRRISNWSNLWC | -0.029 ± 0.98
IVTSMSYNFLLKLMAGPQLR | 0.274 ± 0.67
MCSLFVCMSNTSIV | 5.406 ± 0.051
SDDLRMHTHGGGYSGFWKGY | inactive
WWKRKTSFVSRSYQVRFAQF | -0.058 ± 1.1
VDRILFNVLAVSFDMELRSL | 0.224 ± 0.24
DRRKAPGLMNAMD | 0.737 ± 0.97
FCCNWSCNCLRMG | 7.799 ± 0.051
RSCGQFLSWSACPFVSLRRR | 0.274 ± 0.46
VIGVGKMLGNNHYPLSDQGL | -0.05 ± 0.26
GNCGET | 0.311 ± 0.41
RCEVESIRNGLAKAGSVTMR | 0.515 ± 0.38

Substance | amyloid nucleation score
SCLMLGTGGETLRSRPPRKV | -1.45 ± 1.1
CLYPVLQVPMCGNMAERQGV | 0.074 ± 0.69
SAWWIGMMWCSSSSYLEIGG | -0.586 ± 0.39
SYAIPMVAIFQVEGHLGHPG | -0.211 ± 1.2
RFTGQWWYVFSLWAILSRIK | 0.357 ± 0.55
YLVILKITGGSDVPTDQMVW | -0.88 ± 0.32
WLLNMENYWTVSTAGWSRWN | 0.332 ± 0.46
FGWLFVCEVSAAGPPTLIWT | 3.11 ± 0.15
SSGDVPGFSPYGKWDFWWTC | -0.151 ± 0.45
TKFKIAYTCYFNMFHRRLCI | -0.374 ± 0.38
YNVQVLQVGGRLCRNKCSSC | 7.825 ± 0.061
LFNLFSRL | 0.335 ± 0.51
ERIIRKAC | 0.338 ± 1.4
LYLEARGGRVSYHQLFFGER | 2.45 ± 0.18
SFRFNGGTFVHSSKTKP | 0.441 ± 0.3
GCAQRKVAPWNRGLRQ | -0.501 ± 0.62
HLVDFMDE | 0.105 ± 0.3
PCLNRLVV | 0.386 ± 0.5
MVSTPSDGNLED | -0.816 ± 0.65
LGLFCESYDEADCRTEDSAC | 0.254 ± 0.3
LGTMSVYRRPRSMMGCRDQG | 0.173 ± 0.26
TGICLWLPAVVDAEES | -0.34 ± 0.35
VVGFYEWGQSREISSLRGGC | 0.382 ± 0.58
GPCGTLSI | -0.541 ± 0.84
YTCSVGDVMINDSETSSKAG | 0.053 ± 0.24

Substance | amyloid nucleation score
IKDRFLEALCVKCGLSYTQG | -0.035 ± 0.26
DSYCLRMPIGSCIDWWGKGV | -0.058 ± 0.61
SCQIGLPVLTYRTATVGHKS | 0.06 ± 1
FLIEMCYV | -0.484 ± 0.88
CLYICIMGRIDAISSHSQII | 0.453 ± 0.43
GFSWSNITKCGWACGSDGMK | 0.676 ± 0.45
ATSDI | -0.076 ± 0.27
QGKLFFLVNLYSKPQNSHYG | 4.13 ± 0.069
QGVGSDVTSIYTV | -0.884 ± 2.4
VKESRCCSYGTVRSISQGLG | -0.512 ± 0.89
GNCKGKRPSRGGRCSGQ | 1.2 ± 0.58
FNKVSAMDEAREYGVEVVAV | 5.46 ± 0.073
FRVMDRVGSCLIVELTPG | 0.084 ± 0.55
SCYVLVMYCYDMSFCDTLCE | 0.024 ± 0.47
KKFEVSL | 0.159 ± 0.68
GMFNLLH | inactive
GNNGVEKPKNHISGELFGTN | -0.138 ± 0.35
LELTIRVRNSIVI | inactive
KIKLMF | -0.416 ± 1.6
TVAGVR | 0.174 ± 0.4
FISNIFKMKMATQSGGLGVR | -0.789 ± 0.71
EKWGGGVM | -0.08 ± 0.58
WDHLRGLTCNVFIMIVKSFF | 1.4 ± 0.36
LLCICWLALICCLNSELGSQ | -0.675 ± 1
NGFQLTILKDHGLVKRQSPR | inactive

Substance | amyloid nucleation score
AWVYSYSRSILMWGVTGLWV | 0.77 ± 0.61
IVNSKCRFWYYINGTVIFFL | 6.331 ± 0.059
AFYGVDFSSGRGLFSY | -0.574 ± 1.1
RLSRLLTLISVACSTFLCVV | -1.84 ± 2.1
ITYSLSIYSSRAICLYVWGG | -0.119 ± 0.62
DGYGLIFW | -0.268 ± 0.47
INALYRFGWKARFSMSC | 0.282 ± 0.45
SCIWIWICNHSMFGMETGLG | 4.12 ± 0.1
NSRMMLGVLSSVAYGVRMVW | 0.651 ± 0.56
IRYKA | 4.49 ± 0.11
VFSCLLHYIFKAMLGYSVCL | -0.155 ± 0.3
YIIWVYCVRMNSLHELLAMS | 0.684 ± 0.8
RDCPGL | -0.95 ± 2.7
VRSWVLVLQSMCGLLSGGYG | -0.802 ± 0.96
HHGSCFEGLFCSETFCLAIM | 6.495 ± 0.055
IIKFSNDWDVDKFSFGSVLE | 0.596 ± 0.63
YCWCINNH | 6.26 ± 0.084
SVLNSDCNCGIKSWFTDIIM | 1.96 ± 0.4
HFVRFRRAMSRHGRVAST | -0.979 ± 0.75
PSIHTFCTAL | 0.318 ± 0.33
DCIACRECSMTSKLLGGLGT | 0.859 ± 0.39
KYKVVI | -0.289 ± 0.24
IGYITHITYSVLVL | 0.371 ± 0.3
SKSLFIIGTVPDRS | -0.467 ± 0.52
LRVAFIKLKHKKFNDMYRSM | 0.156 ± 0.26

Substance | amyloid nucleation score
HYQERC | -0.604 ± 0.34
RAVGDM | -0.241 ± 0.52
VLGKCVNR | -0.366 ± 0.21
GNTVQLGRAGRFHVYDLRGV | -0.357 ± 0.6
FGEYSCGRREMPYCFLDYYL | 0.356 ± 0.41
TSRRAEYRWSYQEKSGSSRS | 1.26 ± 0.45
ESFTPSRSTNVRI | -1.24 ± 0.94
TNTSHVLTLESCSCRERVSR | 0.969 ± 0.55
TLFLLVSNVIAEFLFWIVCP | 0.212 ± 0.3
LMHKDISERDRSCLWL | 0.033 ± 0.5
ICYNKSSP | -0.097 ± 1.2
RDSNVGIFHNSR | -1.35 ± 0.87
TSASYRADVWDDGNVLYRLW | inactive
VYSGYSCCAWLLIWTSDGTD | 8.255 ± 0.048
FTVVISSLNEGEEHRVWCKF | -0.444 ± 1.2
ASTYMYGFSYIYMLVNRCEC | 1.59 ± 0.14
CQDGLDNLNCGAMVYFVVGD | 2.25 ± 0.22
LYPLMEGDRKKL | 0.981 ± 0.47
TWCCEVNAAVEHG | -1.17 ± 1.1
TSSRCRYMFFLRHIFCKILK | inactive
PGGSIRGFSRLSKLHWDRGE | 0.252 ± 0.4
SARQVSGLTWVM | 2.52 ± 0.11
KSQLRQSTYPS | -0.358 ± 0.82
FRHPMTDDDTPWKAARFVE | -1.6 ± 2.4
LVSRRSGHKYYGTTTDCCKN | inactive

Substance | amyloid nucleation score
YLWMFCYMYREVAIRVNVGG | 0.1 ± 0.34
VFNVV | -0.605 ± 0.52
TYPYFDWPFRTRRLMEVSET | -0.4 ± 0.63
DSYSLSN | -0.179 ± 0.27
LVWISVL | 0.163 ± 0.32
NNSYFMCNTLRRVLMGLLLG | 1.11 ± 0.65
SVNHCHCL | 0.597 ± 0.3
TSLCCSYWFSSVIGFSGYCG | 1.89 ± 0.28
GQDDYLWRRSGLDHNHSSSS | -0.568 ± 0.37
TTNMRLFLLYNTTLVMSFNV | 1.88 ± 0.16
CHGCLGG | -0.312 ± 1.5
AFRYDRVWVGQQLFGQECRP | 0.054 ± 0.46
HVDFQVASSDEDLIHLFLYH | 0.258 ± 0.54
GALCCLCRSNHYVLQCGVKC | 1.47 ± 0.7
HSTTLPLLWAYILYPAFG | -0.267 ± 0.37
RKVITDKTLL | -0.099 ± 0.45
LRWLSRKILLTVRASN | -0.125 ± 0.33
YCVVFYP | 1.66 ± 0.61
AWFGYISYWNEFFLWDCFWS | -0.366 ± 0.4
VGRRNKVAWVKLRHEVRRCV | 0.106 ± 0.52
LCLFFGLHLWVWMRKACCY | -0.205 ± 0.31
EYICLLTDSCNDTVLFSCPR | -0.583 ± 0.83
PECQSGCMV | -0.163 ± 0.41
GDRVAEFQFPLSYTRPELSL | 0.046 ± 0.72
FFIDMCEL | -0.897 ± 0.53

Substance | amyloid nucleation score
NVAFYVTVV | -0.049 ± 0.26
GSLFWEVMKVMADGMCDVSL | 0.59 ± 0.54
QISVKTMLLSLTFRMFIYWN | -0.168 ± 0.38
SFILCGISRSYQMLLMTRYL | 6.09 ± 0.068
LSCIVW | -0.366 ± 0.57
LCLLCNRYRWTN | 7.041 ± 0.048
NGFLTSRCMLVCMKGMV | 0.729 ± 0.34
YPNVRSTYGDHSLLSNVAKG | 0.132 ± 0.66
MKDYHSDHIKIVQANHTEKV | -1.32 ± 2.4
KSSTKGLISRGRFGYRVPSN | -0.215 ± 1.7
LNAKFIVKW | 0.588 ± 0.21
GTTDIFFLLILFFQVVN | 1.14 ± 0.73
CLILTRCVSYGRPMTACLVL | 0.16 ± 0.56
VHNPSVNDLYFLVICCVYLF | 0.484 ± 0.26
CNYSSSTVGYRSDMRVCSDT | 0.405 ± 0.61
LCDFLNAYEINGKFSCGGTR | 0.084 ± 0.38
ITTIMTAVTVSPPQSMWFVS | 1.96 ± 0.25
RSIFVP | inactive
CGALWALKV | -1.04 ± 0.78
QEYRDMILKPFHRWFTMFK | 0.941 ± 0.44
EKDVAIFLDLGYFHCTRSST | 1.97 ± 0.2
SIHVVVTQLALISLLNVKSV | inactive
TKCGMGYISGISSPASGQYG | 0.767 ± 1
